Test [1] addresses α5β1 integrin on human bladder cancer 5637 cells (human (endogenous in 5637)) (UniProt P08648).
In test [2] the target is α5β1 integrin on murine bladder cancer MB49-Luc cells (mouse (endogenous in MB49-Luc)) (UniProt P11688).
For test [3] the target is unchanged. The source holds these as a separate data set.
Test [4] concerns the target Wild-type human integrin α5β1 (octyl β-D-glucopyranoside preparation) (human) (UniProt P08648). Briefly: ELISA; α5β1 (4 μg/ml) coated on PVC microtiter plates; Iso4-HRP or ARA-HRP 0–400 nM in 25 mM Tris-HCl pH 7.4, 150 mM sodium chloride, 1 mM magnesium chloride, 1 mM manganese chloride, 1% BSA, 2 h; no detergent; bound peroxidase by OPD, absorbance at 490 nm; effect of urine: Iso4-HRP 300 nM mixed with human urine (11.5–90%). (In an ELISA, binding on a coated surface is turned into a signal by an enzyme label.)

The next test deals with MB49-Luc cells. Put plainly: Cell adhesion to GNR-coated plates, MB49-Luc. Particulars: excess of free Iso4, plates coated with 250 µg/ml GNRs@Chit-Iso4. The format is cell-based, murine. On the procedure: (§1) The plates were washed and blocked with 2% BSA in DMEM or RPMI-1640 (200 μl/well, 1 h). MB49-Luc and 5637 cells were detached with DPBS-E, washed twice with DPBS, and suspended in DMEM or RPMI-1640 containing 0.1% BSA (binding buffer-3), and added to the coated-plates (1.5 ×10^5 cells/well, 100 μl). After 1–2 h of incubation at 37 °C, 5% CO2, the plates were washed with binding buffer-3. Adherent cells were fixed and stained with 0.5% crystal violet in 20% methanol. After washing with water, the dye was extracted from cells using a 10% acetic acid solution (140 μl/well) and the absorbance at 570 nm was measured using a microplate reader.

Another test deals with 5637 cells. Put plainly: Cell adhesion to GNR-coated plates, 5637. The format is cell-based, human. Particulars: excess of free Iso4, plates coated with 250 µg/ml GNRs@Chit-Iso4. On the procedure:
as §1

The subject of test [5] is MB49-Luc orthotopic bladder tumor. Briefly: In vivo PAI of orthotopic MB49-Luc bladder tumor. Details: species or system mouse. Particulars: co-administration of excess free peptide (296 µg) with GNRs@Chit-Iso4 (1.5 nmol Au); two mice per condition. On the procedure:
All procedures and studies involving mice were approved by the Institutional Animal Care and Use Committee of San Raffaele Scientific Institute and performed according to the prescribed guidelines (IACUC, approval number 942). Female albino C57BL/6 J mice (9 weeks old, weighing about 20 g, Charles River Laboratories, Italy) were anesthetized with ketamine (80 mg/kg) and xylazine (15 mg/kg) and kept in dorsal position. Using a 24-gauge catheter, the bladder of each mouse was emptied and instilled with or without MB49-Luc cells (10^5 cells/100 μl in DPBS). Thirty minutes later the catheter was removed, and mice were allowed to recover and returned to their cage. Tumor growth was monitored by measuring the tumor volume through US imaging (see below) and in vivo bioluminescent quantification after administration of luciferin (15 mg/kg, intra peritoneum) using the non-invasive In Vivo Imaging System (IVIS, PerkinElmer, USA). […]

Sequence of UniProt P11688 (P11688 45-1053, chain 1 of 2): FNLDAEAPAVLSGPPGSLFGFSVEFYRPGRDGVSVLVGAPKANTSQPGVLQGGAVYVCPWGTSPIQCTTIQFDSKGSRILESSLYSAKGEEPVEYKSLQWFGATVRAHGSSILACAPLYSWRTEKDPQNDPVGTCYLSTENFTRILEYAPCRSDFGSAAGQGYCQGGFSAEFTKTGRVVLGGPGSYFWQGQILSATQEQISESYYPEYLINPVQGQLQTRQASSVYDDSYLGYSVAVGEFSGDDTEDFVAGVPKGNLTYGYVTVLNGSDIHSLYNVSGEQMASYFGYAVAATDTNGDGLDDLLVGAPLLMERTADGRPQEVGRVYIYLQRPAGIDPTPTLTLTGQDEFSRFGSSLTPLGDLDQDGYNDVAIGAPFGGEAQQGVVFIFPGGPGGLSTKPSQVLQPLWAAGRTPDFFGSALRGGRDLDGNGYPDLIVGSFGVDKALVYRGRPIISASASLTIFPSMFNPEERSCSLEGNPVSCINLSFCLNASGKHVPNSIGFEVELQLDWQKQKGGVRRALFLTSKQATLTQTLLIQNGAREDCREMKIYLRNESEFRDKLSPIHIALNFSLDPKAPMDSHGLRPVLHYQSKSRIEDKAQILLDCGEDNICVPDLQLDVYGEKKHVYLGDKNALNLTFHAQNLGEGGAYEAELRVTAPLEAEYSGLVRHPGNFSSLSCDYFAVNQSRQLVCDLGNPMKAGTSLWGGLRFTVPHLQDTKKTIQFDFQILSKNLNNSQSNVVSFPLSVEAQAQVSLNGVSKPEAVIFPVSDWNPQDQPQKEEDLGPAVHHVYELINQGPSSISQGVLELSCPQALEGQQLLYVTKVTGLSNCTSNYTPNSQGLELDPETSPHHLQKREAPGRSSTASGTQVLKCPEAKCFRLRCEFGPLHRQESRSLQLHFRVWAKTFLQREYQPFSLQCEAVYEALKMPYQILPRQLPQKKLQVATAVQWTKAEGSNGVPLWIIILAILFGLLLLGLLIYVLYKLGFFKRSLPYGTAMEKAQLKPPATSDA
Sequence of UniProt P11688 (P09055 21-798, chain 2 of 2, further chain): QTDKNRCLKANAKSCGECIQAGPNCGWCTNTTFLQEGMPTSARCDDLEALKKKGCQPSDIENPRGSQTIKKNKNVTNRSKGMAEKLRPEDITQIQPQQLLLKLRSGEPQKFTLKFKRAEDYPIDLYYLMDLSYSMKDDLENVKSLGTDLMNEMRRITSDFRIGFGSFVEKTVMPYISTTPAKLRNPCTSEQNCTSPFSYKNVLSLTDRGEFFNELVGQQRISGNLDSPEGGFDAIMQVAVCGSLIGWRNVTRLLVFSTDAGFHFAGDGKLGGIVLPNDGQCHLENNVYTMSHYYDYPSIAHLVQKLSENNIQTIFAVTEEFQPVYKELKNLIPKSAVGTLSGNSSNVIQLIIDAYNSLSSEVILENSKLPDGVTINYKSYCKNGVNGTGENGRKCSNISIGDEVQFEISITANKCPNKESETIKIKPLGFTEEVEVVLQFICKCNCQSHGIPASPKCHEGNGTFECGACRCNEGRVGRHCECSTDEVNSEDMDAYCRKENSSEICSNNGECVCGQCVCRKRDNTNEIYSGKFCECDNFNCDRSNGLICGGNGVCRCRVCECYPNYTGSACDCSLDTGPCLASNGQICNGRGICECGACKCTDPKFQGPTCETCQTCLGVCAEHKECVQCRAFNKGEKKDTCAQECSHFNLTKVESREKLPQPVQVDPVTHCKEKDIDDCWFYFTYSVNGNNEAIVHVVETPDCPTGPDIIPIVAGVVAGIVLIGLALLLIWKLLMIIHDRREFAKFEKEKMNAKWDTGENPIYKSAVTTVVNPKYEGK
Sequence of UniProt P08648 (P08648 42-1049, chain 1 of 2): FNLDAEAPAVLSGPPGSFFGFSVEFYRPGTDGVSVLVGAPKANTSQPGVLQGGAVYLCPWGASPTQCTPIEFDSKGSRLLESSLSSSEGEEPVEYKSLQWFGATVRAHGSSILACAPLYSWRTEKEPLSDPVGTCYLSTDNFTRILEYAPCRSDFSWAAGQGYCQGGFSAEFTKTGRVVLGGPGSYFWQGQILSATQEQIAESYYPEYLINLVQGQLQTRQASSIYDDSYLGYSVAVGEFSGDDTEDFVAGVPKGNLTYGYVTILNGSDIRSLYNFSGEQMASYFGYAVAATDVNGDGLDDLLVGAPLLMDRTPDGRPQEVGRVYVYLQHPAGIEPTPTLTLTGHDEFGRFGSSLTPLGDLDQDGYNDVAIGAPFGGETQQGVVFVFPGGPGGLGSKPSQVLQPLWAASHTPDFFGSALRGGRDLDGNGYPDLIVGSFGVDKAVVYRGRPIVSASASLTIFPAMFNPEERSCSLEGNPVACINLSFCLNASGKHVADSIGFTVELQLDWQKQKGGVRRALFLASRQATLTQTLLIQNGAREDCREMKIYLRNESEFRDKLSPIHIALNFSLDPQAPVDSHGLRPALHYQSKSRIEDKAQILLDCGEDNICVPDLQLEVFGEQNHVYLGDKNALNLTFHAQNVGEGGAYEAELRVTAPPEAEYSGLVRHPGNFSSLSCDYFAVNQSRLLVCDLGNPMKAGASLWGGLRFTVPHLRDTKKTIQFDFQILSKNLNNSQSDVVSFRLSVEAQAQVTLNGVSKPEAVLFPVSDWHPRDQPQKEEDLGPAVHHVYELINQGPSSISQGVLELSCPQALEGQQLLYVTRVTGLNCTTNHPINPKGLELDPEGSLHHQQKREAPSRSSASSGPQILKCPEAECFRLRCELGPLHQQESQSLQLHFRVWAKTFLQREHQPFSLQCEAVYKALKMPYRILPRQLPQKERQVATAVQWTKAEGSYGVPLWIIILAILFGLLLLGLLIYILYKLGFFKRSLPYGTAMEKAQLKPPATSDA
Sequence of UniProt P08648 (P05556 21-798, chain 2 of 2, further chain): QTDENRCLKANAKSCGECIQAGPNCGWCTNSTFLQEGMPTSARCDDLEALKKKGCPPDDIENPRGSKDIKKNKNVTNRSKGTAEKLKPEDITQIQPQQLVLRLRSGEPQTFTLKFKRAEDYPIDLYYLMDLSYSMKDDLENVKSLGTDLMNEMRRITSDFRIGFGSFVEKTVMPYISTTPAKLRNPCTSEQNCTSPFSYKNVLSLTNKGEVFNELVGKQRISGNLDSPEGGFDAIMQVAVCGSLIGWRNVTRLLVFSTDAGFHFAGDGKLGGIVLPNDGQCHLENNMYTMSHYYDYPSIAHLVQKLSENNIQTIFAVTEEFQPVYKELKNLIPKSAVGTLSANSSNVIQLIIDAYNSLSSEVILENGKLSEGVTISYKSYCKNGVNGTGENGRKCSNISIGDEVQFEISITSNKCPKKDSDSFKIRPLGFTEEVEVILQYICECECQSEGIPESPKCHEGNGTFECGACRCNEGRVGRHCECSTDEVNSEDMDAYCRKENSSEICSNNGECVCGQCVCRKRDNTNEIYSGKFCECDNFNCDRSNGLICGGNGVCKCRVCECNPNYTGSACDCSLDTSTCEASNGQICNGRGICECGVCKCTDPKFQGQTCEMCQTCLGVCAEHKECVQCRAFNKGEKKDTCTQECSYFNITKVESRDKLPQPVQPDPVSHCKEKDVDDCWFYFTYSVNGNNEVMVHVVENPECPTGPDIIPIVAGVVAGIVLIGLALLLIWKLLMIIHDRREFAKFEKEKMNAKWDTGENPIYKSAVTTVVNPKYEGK

Consider “GNRs@Chit-Iso4 (chitosan-coated gold nanorods functionalized with Iso4 through a maleimide-PEG12-NHS linker) (peptide)”, for which the EC50 of adhesion of 5637 cells to plates coated with GNRs@Chit-Iso4 in test [1] turned out to be 1.3 µg/mL. In test [2], this substance yielded an EC50 of adhesion of MB49-Luc cells to plates coated with GNRs@Chit-Iso4 of 0.73 µg/mL. This substance also registered an increase of MB49-Luc cell adhesion to GNRs@Chit-Iso4-coated plates in DMEM containing 25–75% human urine in test [3] of 20%.
With “Iso4-HRP (head-to-tail cyclized peptide c(CphgisoDGRG), Iso4, conjugated to maleimide-activated horseradish peroxidase)”, the recovery of binding in 90% human urine in test [4] was determined as 55%.
As for c(CphgisoDGRG) (head to tail) [Iso4], the “inhibition of cell adhesion by free peptide” value in the test with MB49-Luc cells and in the test on 5637 cells was “completely inhibited cell adhesion” in each case. Moreover, in test [5], the “effect of free peptide on tumor binding of GNR@Chit-Iso4” value is on record as “reduced by co-administration of an excess of free Iso4 peptide”.

The values are drawn from article PMC9649962, “Early diagnosis of bladder cancer by photoacoustic imaging of tumor-targeted gold nanorods” (Photoacoustics, 2022).
